{
  "source": "the nanobody polyreactivity screen of Harvey et al. (2022)",
  "data": [
    {"test": "yeast display, Sf9 membrane polyspecificity reagent, FACS + sequencing; frameworks hold sequencing errors", "summary_of_the_method": "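Genes from sorted yeast were amplified by colony PCR, read by MiSeq 2 × 250 sequencing and filtered on CDR length. These cells carried a synthetic nanobody library in Saccharomyces cerevisiae BJ5465 and were sorted by FACS into low and high (top ~1%) gates on anti-HA and streptavidin fluorescence. Polyreactivity is labelled according to the gate of origin.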", "values": [
      {"sequence": "QVQLVESGGGLVQAGGSLRLSCAASGSIFRYVMGWYRQAPGKERELVAAISIRGGSTYYADSVKGRFTISRDNAKNTVYLQMNSLKPEDTAVYYCAADRYRLGVKYDYWGQGNQVTVSS", "polyreactivity (PSR sort gate)": "high polyreactivity"},
      {"sequence": "QVQLVESGGGLVQPGGSLRLSCAASGGIFRSYAMGSYRQAPGKERELVAVITKSGGDTYYADSVKGRFTISRDNAKNTVYLQMNRVKPVDTAVYYCAAVYGYYTYWIPGFTWAVDYWGQGTQVTVSS", "polyreactivity (PSR sort gate)": "low polyreactivity"},
      {"sequence": "QVQLVESGGGLVQAGGSLRLSCAASGSTLQVNAMGWYRQATGKERELVDTISFSGGSTYYADSVKGRFTISRDNAKNTVYLQMNSLKPEDTAVYYCNADSFVSWYNQFWYQATYDYWGQGTQVTVSS", "polyreactivity (PSR sort gate)": "low polyreactivity"},
      {"sequence": "QVQLVVSGGGLVQAGGSLRLSCAASGRTFRSNAMGWYRQAPGKERELVAAISRTGRTNYADSVKGRFTISRDTAKNTVYLQMNSLKPEDTAVYYCAARGYSVPRQERYDYWGQGTQVTVSS", "polyreactivity (PSR sort gate)": "high polyreactivity"},
      {"sequence": "QVQLVESGGGLVQAGGSLRLSCAASGFIFYNYDMGWYRQAPGKERELVAAITGGGSTNYADSVKGRFTISRDNAKNTVYLKMNSLKPEDTAVYYCAAEEGPPCYRYDYWGQGTQVTVSS", "polyreactivity (PSR sort gate)": "low polyreactivity"},
      {"sequence": "QVQLVESGGGLVQAGGSLRLSCAASGSIFSYYAMGWYRQAPGKERELVAAITIRGGRTYYADSVKGRFTISRDNAKNSVYLQMNSLKPEDTAVYYCAAETGHKQHGYTYEVSRRCYGYWGQGTQVTVSS", "polyreactivity (PSR sort gate)": "low polyreactivity"},
      {"sequence": "QVQLVESGGGLVQAGGILRLSCAAAGGTLYYYMGWYRQAPGKESEFVAAINIRGDSTYYADSVKGRFTISRDNAKNTVYLQMNSLKPEDTAVYYCAADLPRRSAHYYYWGQGTLVTVSS", "polyreactivity (PSR sort gate)": "low polyreactivity"},
      {"sequence": "QVQLVESGGGLVQAGGSLRLSCAASGLTFTSYAMGWYRQAPGKERELVAAIDWSGGRTYYADSVKGRFTISRDNAKNTVYLQMNSLKPEDTAVYYCAAYSRNRSLRFNYWGQGTQVTVSS", "polyreactivity (PSR sort gate)": "high polyreactivity"},
      {"sequence": "QVQLEESGRGLVQAGGSLRLSCAASGSTCYDYAMGWYRQAPGKERELVAASSRIGARTYYADSVKGRFTISRDNAKNTVYLQMNSQKPEDTAGYYCAATRVYSDYKYWGQGTQVTVSS", "polyreactivity (PSR sort gate)": "high polyreactivity"},
      {"sequence": "QVQLVESGGGLVQAGGSLRLSCAASGSIFGPYAMGWYRQAPGKERELVAAITWTGGRTYYADSVKGRFTISRDNAKNTVYLQMISLNPEDTAVYYCAADYSPSTWYLYYTLFYYWGQGTQVTVSS", "polyreactivity (PSR sort gate)": "low polyreactivity"},
      {"sequence": "QVQLVESGGGLVQAGGSLRLSCAASGRIFTPYPMGWYRQAPGKERELVAVIRDGSTYYADSVKGRFTISRDNAKNSVYLQMNSLKPEDSAVYYCRYDIWVWWSGAYDYWGQGTQVTVSS", "polyreactivity (PSR sort gate)": "low polyreactivity"},
      {"sequence": "QVQLVESGGGLVQEGGSLRLSCAASGRIFSRYVMGWYRQAPGKERELVAAITGSGGSTYYADSVKGRFTISRDNAKNTVYLQMNSLKPEDTADYYCAVVSRANSYRYNYWGQGTQVTVSS", "polyreactivity (PSR sort gate)": "high polyreactivity"},
      {"sequence": "QVQLVESGGGLVQAGGSLRLSCAASGLTFLYNAMGWYRRATGKERELVASITNGGSTNYADSVKGRFTISRDNEKNTVYLQMNSLKPEDTAVYYCAKAAVDVGQRTPWEYDYWGQGTQVTVSS", "polyreactivity (PSR sort gate)": "low polyreactivity"},
      {"sequence": "QVQLVESGGGLVQAGGRLRLSCPASGRTFPPYAMGWYRQAPGKERELVGAISRRAGTTYYADSVKGRFTISRDNAKNTVYLQMNSLKPEDTAVYYCAALTESSSYGYWGLGTQVTVSS", "polyreactivity (PSR sort gate)": "low polyreactivity"},
      {"sequence": "QVQLVESRGGLVQAGGSLRLSCAASGFSFAYYAMGWYTQAPGIERELVAGISAGYGSTYYADSVKGRFTISRDNAKNTVYLQMNSLKPEDTAVYYCAADTSSTSINGDIYDYEYWGQGTQVTVSS", "polyreactivity (PSR sort gate)": "low polyreactivity"},
      {"sequence": "QVQLVESGGGLVQAGGSLRLSCSASGIIFSTYAKGWYRQAPGKERELVAAITSTGSTNYADSVKGRFTISRDNAKNTVYLQLNSLKPEDTAVYYCAARYAGPSPTDTGHDYWGQGTQVTVSS", "polyreactivity (PSR sort gate)": "low polyreactivity"},
      {"sequence": "QVQLVESGGGLVQAGGSLRLSCAASGSIFYFYAMGWYRQAPGKERELVAASRFTGGTTYYADSVKGRFTISRDNAKNTVYLQMNSLKPEDTAVYYCAKQTSYWSRGYDYWGQGTQVTVSS", "polyreactivity (PSR sort gate)": "low polyreactivity"},
      {"sequence": "QVQLVESGGVLVQAGGSLRLSCAASGRIFRYYAMGWYRQAPGKERELVAAIRYRSGGTYYADSVKGRFTISRDNAKNTVYLQMNSLKTEDTAVYYCNADKRLRGHGYDYWGEGTQVTVSS", "polyreactivity (PSR sort gate)": "high polyreactivity"},
      {"sequence": "QVQLVESGGGLVQAGGSLRISSAASGSITPYYTMGWYRQAPGKERELVATITSGGNTYYADSVKGRFTISRDNAQNTVYLQLNSVKPEDTAVYYCAAEGVWGIFDYWGKGTQVTVSS", "polyreactivity (PSR sort gate)": "low polyreactivity"},
      {"sequence": "QDQHVESGGCLVQEGGSLRLSCAASGRTFSSNVMGWYRQAPGKVRELVASITWSGGTTYYADSVKGRFTISRDNAKNTVYLQMNSLKPEDTAVYYCNAADERSQGWVGYDHWGQCTQVTVSS", "polyreactivity (PSR sort gate)": "low polyreactivity"},
      {"sequence": "QVQLVESGGGLVQAGGSLRLSCAASGITFKDYAMGWYRQATGKERELVAVISYSGGSTYYADSVKGRFTISRDNAKNTVYLEMNSLKPEDTAVYYCAARVGPEYDWGQGTQVTVSS", "polyreactivity (PSR sort gate)": "low polyreactivity"},
      {"sequence": "QVQLVESGGGLVQAGGSLRLSCAASGSIFPPNAMGWYRQAPGKERELVAGISQSGGSTYYADSVKGRFTISRDNAKNTVYLQMNSLKPEDTAVYYCARSFYSGRRYYYWGQGTQVTVSS", "polyreactivity (PSR sort gate)": "high polyreactivity"},
      {"sequence": "EEELVESGGGLVQAGGSLRLSCAASGSTFLVYAMGWYRQAPGKERELVAVITYSTVRTYYADSVKGRFTISRDNAKNTVYLQMNSLKPEDTAVYYCNADKEYAVLGQGMDYWGQGTQVSVSS", "polyreactivity (PSR sort gate)": "low polyreactivity"},
      {"sequence": "QVQLVESGGGLVQAGGSLRLSCAASGRIFKAYAMGWYRQAPGKERELVAVITGTGRTTYADSVKGRFTISRDNAKNTVYLQMNSLKPEDTAVYYCNVRWYYKGDYWGQGTLVTVSS", "polyreactivity (PSR sort gate)": "high polyreactivity"},
      {"sequence": "QVQLVESGGGLVQAGGSLRLSCAASGFIFRYNPMGWYRQAPGKERELVAVITSGGRTYYADSVKGRFTISRDNAKNTVYLQMNSLKPEDTAVYYCNGDSRHRRNYDYWGQGSQVTVSS", "polyreactivity (PSR sort gate)": "high polyreactivity"},
      {"sequence": "QVQLVESGGGLVQAGGSLRLSCAASGLTFQWYTMGWYRQAPGKERELVAAISSRGGSTYYADSVKGRFTISRDNAKNTVYLQMNSLKPEDTAVYYCAVRLRWYFFLMDYWGQGTQVTVSS", "polyreactivity (PSR sort gate)": "high polyreactivity"},
      {"sequence": "QVQLVESGGGLVQAGGILRLSCAASGNIFDRYAMGWYSQAPGKERELVAGMTWSGGSTYYADSVKWRFTISRDNAKNTVYLQMNSLKPEDTAVYYCGQANYYWGQGTQVTVSS", "polyreactivity (PSR sort gate)": "low polyreactivity"},
      {"sequence": "QVQLVESGGVLVQAGGSLRLSCAASGITLPVYGMGWYRQAPGKERELVAVIDIVGITNYADSVKGRFTISRDNAKNTVYLQMNSLNPEDTAVYYCAKRYVYIADGGEYYYWGQGTQVTVSS", "polyreactivity (PSR sort gate)": "low polyreactivity"},
      {"sequence": "QVQLVESGGGLVQAGGSLRLSCAASGSIFVDNAMGWYRQAPGKEREMVAAISRRGGSTYYADSVKGRFTISRDNAKNTVYLQMNSLKPEDTAVYYCNKKNIQFYQGASDYWGQGTQVTVSS", "polyreactivity (PSR sort gate)": "high polyreactivity"},
      {"sequence": "QVQLVESGGGLVQAGGSLRLSCAASGSTFRYNAMGWYRQAPGKERELVAVISWGGGRTYYADSVKGRFTISRDNAKNTVYLQMNSLKPEDTAVYYCNVYFGRIVARDYGYWGQGTQVTVSS", "polyreactivity (PSR sort gate)": "high polyreactivity"}
    ]}
  ]
}
